This passage reports IC50 results from patent US9217036.

The target of the experiment is full-length mouse PrP, cellular prion protein PrP^c (mouse) (UniProt P04925).
Sequence of full-length mouse PrP, cellular prion protein PrP^c (mouse) (P04925 23-230 limits assumed): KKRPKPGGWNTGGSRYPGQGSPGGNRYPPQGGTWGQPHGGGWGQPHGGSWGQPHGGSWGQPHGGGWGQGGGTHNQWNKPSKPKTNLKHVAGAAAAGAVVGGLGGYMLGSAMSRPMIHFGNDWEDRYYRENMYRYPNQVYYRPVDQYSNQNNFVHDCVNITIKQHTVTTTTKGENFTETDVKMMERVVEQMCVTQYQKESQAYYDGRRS

Broadly, the IC50 is the concentration at which inhibition is half-maximal. A higher IC50 goes with a need for much substance. 6D11 anti-PrP mouse monoclonal antibody displayed an IC50 of 1 nM.
